# Test results published in PMC4607269 (Cell, 2015).
# B1: GFP-xBuGZ-C (domain or fragment, Xenopus, UniProt Q7ZXV8 376-452, looked up)
# chain: GAMMAPRPGLPPQQHGMRHPLPPHGQYGAPLQGMAGYHPGTMPPFGQGPPMVPPFQGGPPRPLMGIRPPVMSQGGRY
# B2: YFP-tagged xBuGZ (Xenopus BuGZ) (natural protein)
# chain: not shown
# B3: GFP-xBuGZ-A (domain or fragment, Xenopus, UniProt Q7ZXV8 111-187, looked up)
# chain: NQDDSDYDDDDDTAPSTSFQQMQTQQAFMPTMGQPGIPGLPGAPGMPPGITSLMPAVPPLISGIPHVMAGMHPHGMM
# B4: GFP-xBuGZ-B (domain or fragment, Xenopus, UniProt Q7ZXV8 258-334, looked up)
# chain: SAGQAQAHISGPVGTDFKPLNNIPATTAEHPKPTFPAYTQSTMSTTSTTNSTASKPSTSITSKPATLTTTSATSKLV
# Target: His-xBuGZ (Xenopus, UniProt Q7ZXV8 1-452)
# Assay: incorporation into His-xBuGZ droplets
row,binding result,Binder
1,binds,B1
2,binds,B2
3,binds,B3
4,binds,B4
